Data taken from article doi:10.1101/2024.08.29.610189 (bioRxiv, 2024).
Values belong to the binder of their own block, whether it stands above or below them.

Legend:
[1] = molecular target: T1, Atg17–Atg29–Atg31 complex, wild type (S. cerevisiae (budding yeast), UniProt Q06410 1-417; Q12092 1-213; Q12421 1-196); experiment: pull-down
T1 sequence (looked up) 1: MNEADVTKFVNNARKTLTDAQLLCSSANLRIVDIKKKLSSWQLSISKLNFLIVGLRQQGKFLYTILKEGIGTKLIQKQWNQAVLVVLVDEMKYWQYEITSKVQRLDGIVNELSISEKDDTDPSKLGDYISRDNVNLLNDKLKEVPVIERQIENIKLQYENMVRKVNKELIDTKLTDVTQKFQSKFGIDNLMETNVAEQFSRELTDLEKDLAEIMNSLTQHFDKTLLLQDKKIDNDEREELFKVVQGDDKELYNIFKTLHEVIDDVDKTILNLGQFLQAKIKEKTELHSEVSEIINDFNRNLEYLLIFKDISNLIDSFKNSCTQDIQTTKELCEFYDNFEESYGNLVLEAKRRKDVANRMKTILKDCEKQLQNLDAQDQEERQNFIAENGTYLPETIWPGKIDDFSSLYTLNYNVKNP
T1 sequence (looked up) 2: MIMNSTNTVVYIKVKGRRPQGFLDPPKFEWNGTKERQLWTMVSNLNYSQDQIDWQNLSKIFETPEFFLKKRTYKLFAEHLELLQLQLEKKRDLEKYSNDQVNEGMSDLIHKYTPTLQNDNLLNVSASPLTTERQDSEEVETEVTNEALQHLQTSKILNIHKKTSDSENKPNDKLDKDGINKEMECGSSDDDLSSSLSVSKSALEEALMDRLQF
T1 sequence (looked up) 3: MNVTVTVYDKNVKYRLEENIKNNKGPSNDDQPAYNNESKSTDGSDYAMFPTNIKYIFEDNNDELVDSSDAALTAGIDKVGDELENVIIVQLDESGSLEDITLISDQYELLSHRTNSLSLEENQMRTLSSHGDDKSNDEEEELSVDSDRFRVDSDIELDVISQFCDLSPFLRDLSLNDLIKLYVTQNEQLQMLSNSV

[2] = molecular target: Atg17–Atg31C (residues 174–196) complex (S. cerevisiae (budding yeast), UniProt Q06410 1-417; Q12421 174-196); experiment: ITC

binding result [1]: binds
B1: GST–Atg12^17BH F50A (domain or fragment, S. cerevisiae (budding yeast), UniProt P38316 42-62, looked up)
chain: TVQNRLELASRRLSQLGLASD

Kd [2]: 3.8 µM
B2: Atg12^17BH–mGFP, wild type (Atg12 residues 42–62 with C-terminal mGFP) (domain or fragment, S. cerevisiae (budding yeast), UniProt P38316 42-62, looked up)
chain: TVQNRLELFSRRLSQLGLASD
